Data taken from the Immune Epitope Database (IEDB).

Tests used:
Assay in all cases: IEDB peptide-MHC binding, purified MHC/competitive/radioactivity; ≥ and ≤ were set here for values at or beyond the usual limits of such assays
Conditions in all cases: source organism: Bordetella pertussis
HLA-B*57:01 = target: HLA-B*57:01
HLA-B*07:02 = target: HLA-B*07:02
HLA-B*44:03 = target: HLA-B*44:03
HLA-B*35:01 = target: HLA-B*35:01
HLA-A*02:01 = target: HLA-A*02:01
HLA-B*53:01 = target: HLA-B*53:01

## TTLGLEQTF
HLA-B*57:01
  IC50: 4.77 µM

## GPPSRPTTP
HLA-B*07:02
  IC50: 69.6 µM

## AAVALLNKL
HLA-B*44:03
  IC50: 0.672 µM

## VHVSKEEQY
HLA-B*35:01
  IC50: 69.9 µM

## GVAPTAQQL
HLA-A*02:01
  IC50: 69.4 µM

## PPKPAPVAK
HLA-B*07:02
  IC50: ≥ 77.5 µM

## AVLVNPHIF
HLA-B*57:01
  IC50: 33.3 µM

## GKDLKRPGS
HLA-B*35:01
  IC50: 69.9 µM

## VLVKTNMVV
HLA-A*02:01
  IC50: 11.4 µM

## GPSAVAAPA
HLA-B*07:02
  IC50: 0.624 µM

## MATKGEMQI
HLA-B*53:01
  IC50: 58 µM

## ETFCITTIY
HLA-B*35:01
  IC50: 15.8 µM
HLA-B*53:01
  IC50: 31.1 µM

## MAAESTFES
HLA-B*53:01
  IC50: 24.1 µM

## FVRSGQPVI
HLA-B*07:02
  IC50: 17.6 µM

## YMIYMSGLA
HLA-A*02:01
  IC50: 0.407 µM

## DDEVDVSGR
HLA-B*57:01
  IC50: ≥ 70.4 µM

## QVGSSNSAF
HLA-B*35:01
  IC50: 69.9 µM

## ITVTSRGGF
HLA-B*57:01
  IC50: 0.773 µM

## AQITSYVGF
HLA-B*44:03
  IC50: 2.12 µM
